No end group written: not given here. *: point of attachment. Biotin = O=C1N[C@H]2[C@H](CS[C@H]2CCCCC(=O)*)N1
Experiments:
[1] = target: T1, GST-phage fusion FV7 (glutathione S-transferase displayed on phage without calmodulin, from vector pFV7) (S. japonica; filamentous phage, UniProt P08515 1-218 = GST; P69168 19-424); assay: phage ELISA on streptavidin plate with biotin-peptide
T1 construct: Any vector tags of pCANTAB6 are not described; also called non-specific phage; E-fd (GST)

[2] = target: Calmodulin-tagged phage DN323 (calmodulin displayed as a gene III fusion on filamentous phage, from phagemid … (filamentous phage, UniProt P0DP23 2-149)); assay: competition ELISA over time with 1000-fold excess of unlabeled peptide

T1 sequence (P08515 1-218, tags or fused parts left off): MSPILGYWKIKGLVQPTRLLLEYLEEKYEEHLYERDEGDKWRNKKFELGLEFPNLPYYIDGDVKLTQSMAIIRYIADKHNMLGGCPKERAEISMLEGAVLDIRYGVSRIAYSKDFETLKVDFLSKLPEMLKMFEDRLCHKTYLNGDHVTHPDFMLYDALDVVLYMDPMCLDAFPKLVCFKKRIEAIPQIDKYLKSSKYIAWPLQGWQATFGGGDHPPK

Q: Does Biotin-CAAARWKKAFIAVSAANRFKKIS [biotin-labeled CAAARWKKAFIAVSAANRFKKIS peptide (SEQ ID NO: 15)] bind [1]?
A: Result: no binding

Q: And the koff [2]?
A: The koff was under 0.1 s⁻¹.

— US6495673 (MEDICAL RESEARCH COUNCIL, dated 2002)
